Common to all, as to settings: glycan lost; control: wild type
Series [1] is described as follows: HBsAg ELISA of supernatant; 293T and Huh7.
Series [2] in a line: confocal co-localisation, transient and stable 293T.
The nature of series [3]: sucrose gradient fractionation, stable 293T, Western blot. (A western blot detects proteins with antibodies after separation by electrophoresis.)
Series [4] in a line: confocal co-localisation, transfected 293T.
A short description of series [5]: confocal co-localisation, stable 293T.

This note sets out measurements from publication PMC4810252.

B1: BST-2/tetherin: N65/92A (protein)
parent chain: MASTSYDYCRVPMEDGDKRCKLLLGIGILVLLIIVILGVPLIIFTIKANSEACRDGLRAVMECRNVTHLLQQELTEAQKGFQDVEAQAATCNHTVMALMASLDAEKAQGQKKVEELEGEITTLNHKLQDASAEVERLRRENQVLSVRIADKKYYPSSQDSSSAAAPQLLIVLLGLSALLQ
Take B1: in series [1], the “other: restriction of virus release” value was “no change”. Also, the localisation_or_trafficking result in series [2] is listed as “increases”; in series [3] it was “changes”.

B2: BST-2/tetherin: N92A (protein)
parent chain: MASTSYDYCRVPMEDGDKRCKLLLGIGILVLLIIVILGVPLIIFTIKANSEACRDGLRAVMECRNVTHLLQQELTEAQKGFQDVEAQAATCNHTVMALMASLDAEKAQGQKKVEELEGEITTLNHKLQDASAEVERLRRENQVLSVRIADKKYYPSSQDSSSAAAPQLLIVLLGLSALLQ
For B2, the localisation_or_trafficking entry in series [4] was “no change”; in series [3], “changes”.

B3: BST-2/tetherin: N65A (protein)
parent chain: MASTSYDYCRVPMEDGDKRCKLLLGIGILVLLIIVILGVPLIIFTIKANSEACRDGLRAVMECRNVTHLLQQELTEAQKGFQDVEAQAATCNHTVMALMASLDAEKAQGQKKVEELEGEITTLNHKLQDASAEVERLRRENQVLSVRIADKKYYPSSQDSSSAAAPQLLIVLLGLSALLQ
As for B3, the results for the localisation_or_trafficking result in series [5], in series [4] and in series [3] were “no change”, “no change” and “changes”, respectively.
